According to US20240174727A1, “LONG-ACTING NATRIURETIC PEPTIDES AND USES THEREOF” (Eli Lilly and Company, priority 2022, published 2024):

Molecular target: T1, human NPRA (human, UniProt P16066 33-1061)
T1 sequence (looked up): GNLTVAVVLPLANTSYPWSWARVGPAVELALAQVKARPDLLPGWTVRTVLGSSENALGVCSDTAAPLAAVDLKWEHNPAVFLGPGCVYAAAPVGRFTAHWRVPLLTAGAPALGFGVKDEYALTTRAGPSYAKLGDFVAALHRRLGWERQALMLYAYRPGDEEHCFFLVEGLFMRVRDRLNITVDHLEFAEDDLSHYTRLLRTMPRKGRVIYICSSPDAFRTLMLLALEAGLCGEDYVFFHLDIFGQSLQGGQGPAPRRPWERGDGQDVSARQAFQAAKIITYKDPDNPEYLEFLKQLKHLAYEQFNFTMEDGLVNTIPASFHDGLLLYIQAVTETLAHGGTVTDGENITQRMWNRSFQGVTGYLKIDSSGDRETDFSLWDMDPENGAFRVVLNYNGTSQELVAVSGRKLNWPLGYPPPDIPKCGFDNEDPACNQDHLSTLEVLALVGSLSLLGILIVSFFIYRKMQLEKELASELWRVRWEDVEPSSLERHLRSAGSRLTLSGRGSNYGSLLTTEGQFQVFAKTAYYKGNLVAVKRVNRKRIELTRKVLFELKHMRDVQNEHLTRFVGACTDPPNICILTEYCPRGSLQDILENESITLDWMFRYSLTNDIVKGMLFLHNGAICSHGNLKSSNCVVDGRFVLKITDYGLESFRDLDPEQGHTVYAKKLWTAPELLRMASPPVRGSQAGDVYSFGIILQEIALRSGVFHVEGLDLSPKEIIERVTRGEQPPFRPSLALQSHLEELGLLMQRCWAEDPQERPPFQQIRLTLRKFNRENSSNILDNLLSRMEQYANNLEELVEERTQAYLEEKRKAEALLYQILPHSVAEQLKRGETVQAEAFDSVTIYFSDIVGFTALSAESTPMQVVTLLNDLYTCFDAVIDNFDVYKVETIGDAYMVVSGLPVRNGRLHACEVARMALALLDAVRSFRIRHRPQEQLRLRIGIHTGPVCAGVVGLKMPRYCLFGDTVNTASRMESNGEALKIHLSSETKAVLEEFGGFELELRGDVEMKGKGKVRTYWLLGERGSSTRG
Experiment: cell-based or functional assay

Row | Binder | cGMP Assay (EC50, pM) w/Casein [pM] | cGMP Assay (EC50, pM) w/BSA [pM]
1 | XEKEKEKGSXKRSSCFGGRIDRIGHQSGLGCPSFRHGGPSSGAPPPS (HOOC-(CH2)18-CO-(γGlu)-EKEKEKGS-4Pal-KRSS[CFGGRIDRIGHQSGLGC]PSFRHGGPSSGAPPPS-NH2; disulfide linkage between the bracketed Cys) [Example 35] | 118 | 
2 | XEKEKEKGSXRRSSCFGGKIDRIGHQSGLGCPSFRHGGPSSGAPPPS (HOOC-(CH2)18-CO-(γGlu)-EKEKEKGS-4Pal-RRSS[CFGGKIDRIGHQSGLGC]PSFRHGGPSSGAPPPS-NH2; disulfide linkage between the bracketed Cys) [Example 36] | 118 | 
3 | EKXRSSCFGGRIDRIGHYSGLGCPSFRHGGKSSGAPPPS (HOOC-(CH2)18-CO-(γGlu)-EKEKEKG-PEG12-EK-βAla-RSS[CFGGRIDRIGHYSGLGC]PSFRHGGKSSGAPPPS-NH2; thioacetal linkage between the bracketed Cys) [Example 77] | 1270 | 
4 | EKXRSSCFGGRIDRIGHYSGLGCPSFRHGGKSSGAPPPS (HOOC-(CH2)18-CO-(γGlu)-EKEKEKG-PEG24-EK-βAla-RSS[CFGGRIDRIGHYSGLGC]PSFRHGGKSSGAPPPS-NH2; thioacetal linkage between the bracketed Cys) [Example 78] |  | 19700
5 | XEKEKEKGEKGRSSCFGGRIDRIGHYSGLGCPSFRHKGGPSSGAPPPS (HOOC-(CH2)18-CO-(γGlu)-EKEKEKGEKGRSS[CFGGRIDRIGHYSGLGC]PSFRHKGGPSSGAPPPS-NH2; disulfide linkage between the bracketed Cys) [Example 50] | 614 | 
6 | XEKEKEKGRSSCFGGKIDRIGHYSGLGCPSFRHKGPSSGAPPPS (HOOC-(CH2)18-CO-(γGlu)-EKEKEKGRSS[CFGGKIDRIGHYSGLGC]PSFRHKGPSSGAPPPS-NH2; disulfide linkage between the bracketed Cys) [Example 47] | 299 | 
